Results from the DeepSol protein solubility set.

Assay: soluble on expression in E. coli; label from the status in PepcDB or PDB records

| Sequence | soluble on expression in E. coli |
| --- | --- |
| MSPPLVIKNGTVVNEDGMFKADVLVRNGIIVEVSPNITALPDTEVIDATDRLVIPGGIDPHTHMQMPYMGEVTKDDFLKGTEAAVAGGTTMIIDFCCPDHRNGESLIAGYNRWRSWADPKVCCDYGLSVAITMWRPETAEQMAIITSPEFGVNSFKFYMAYENTLMVRDDELFRGMQECAKLRALARVHCENGSVIKEKEIDLLAKGVTGPEGHTQSRPEEIEAEATNRACVLAAQANCPVYIVHVMTKGAASAISHHRAQGSIVFGEPIAAGLALDGSHYYNEDWLHAARYVMSPPLSRDPTTPELLMKLLAAGELHLTGTDNCTYDCRQKSLGKGNFTKIPNGINGVEDRMSVVWEKGVHSGIIDPMRYVSITSSTAAKIFNIYPRKGRIAVGSDADIVIFNPNATRTISKDTHHHNLDFNIFEGINCHGVAEVTISRGRIVWAHGKLQTVPGSGKFIPLLANSPFVFSTHEKREQKIQPRIVERLE | not soluble |
| MSQATKRKHVVKEVLGEHIVPSNQQQIVRVLRTPGNNLHEVETAQGQRFLVSMPSKYRKNIWIKRGDFLIVDPIEEGEKVKAEISFVLCKDHVRSLQKEGFWPEAFSEVAEKHNNRNRQTQPELPAEPQLSGEESSSEDDSDLFVNTNRRQYHESEEESEEEEAA | soluble |
| MSQKLKVVTIGGGSSYTPELLEGFIKRYHELPVSELWLVDVEGGKPKLDIIFDLCQRMIDNAGVPMKLYKTLDRREALKDADFVTTQLRVGQLPARELDERIPLSHGYLGQETNGAGGLFKGLRTIPVIFDIVKDVEELCPNAWVINFTNPAGMVTEAVYRHTGFKRFIGVCNIPIGMKMFIRDVLMLKDSDDLSIDLFGLNHMVFIKDVLINGKSRFAELLDGVASGQLKASSVKNIFDLPFSEGLIRSLNLLPCSYLLYYFKQKEMLAIEMGEYYKGGARAQVVQKVEKQLFELYKNPELKVKPKELEQRGGAYYSDAACEVINAIYNDKQAEHYVNIPHHGQIDNIPADWAVEMTCKLGRDGATPHPRITHFDDKVMGLIHTIKGFEIAASNAALSGEFNDVLLALNLSPLVHSDRDAELLAREMILAHEKWLPNFADCIAELKKAH | soluble |
| MSQLCPCGSAVEYSLCCHPYVSGEKVAPDPEHLMRSRYCAFVMQDADYLIKTWHPSCGAAALRAELMAGFAHTEWLGLTVFEHCWQDADNIGFVSFVARFTEGGKTGAIIERSRFLKENGQWYYIDGTRPQFGRNDPCPCGSGKKFKKCCGQ | not soluble |
| MSQLVFIVFQDNDDSRYLAEAVMEDNPDAEMQHQPAMIRIQAEKRLVINRETMEEKLGRDWDVQEMLINVISIAGNVDEDDDHFILEWN | soluble |
| MSQNHVIELANTLKQRPIVCDYTGGRFRLTNEGLTYIGIDRDGTPLPPRWICAPLHIVAKTRDAQSGEWGRLLEWQDDDGITHQWAMPLALLQGDASDVRRELARLGLSISPHRTARDLLASYLQVFPVDARARCVDKLGWHGDVFVTASQCIGQSTEKIVFQNTNAIEPAMSIKGSVDKWRDSIGRLASGNSRLVFAISVALAPVLAKIVGEDSGGFHFRGASSSGKSTALSLAASVWGNPQSYCRLWRSTTNGLEGLAALHNDGLLILDELSQMDPREAGEAAYLLANGQGKTRASRTGTVRQSSRWSLFFLSAGEESLTALMAKSGQRINAGQEIRLADIEADAGCQMGIFETIHDQLSPASMALSLKKYSSGYHGAIGRAWLNQVVANRQTISRFITDTIQSFVDIVIQPDATGQIIRVARRFALVAAAGELASQFGLTGWKKGESFHAAKTCFIAWQDAFGVDGHREDRAIMAQVRAFFESHGASRFDNVNSPNNDKILNRAGFYHTDGEGFRIYMVLTETYKNELCKGFDQRTVTRVLLQAGWLKPASDGKLEHHHHHH | not soluble |
| MSQQEISIINLDQLVSMTSVEIAELTGKEHKHVLRDIRNMVEELNGAKTEHCSTLSSELNGSKFGLVGEEVYKDAKGESRTMYRLDRKHTFILVAGYSVHLRAKCYDHIQTLERRVLQLEDQKKRAAIQSANRRGVTWGDYCKTYGLPAQKLMTALLQHRGLFRKNPISNEWSVNPKYSDCFRIIKPSDQKFSAGGYNFRFNAKGLEVFGKPEMVDKMRGILIAFTGTDQQKQEHLLKLAQSGKVEGI | not soluble |
| MSQVTADALTAQVVAEYLYEHPDFFQHHPHLVERLALPTQTGAVSLAHVQLARQRQRIDSLEEEITALMSLAANNDRTFHEFMDLQEQILKCSSLQAVLHAIEAKARELNLRAYVRLLQRHDEKYGLASEDWQRFATNHFNGKSAYLGRLRQADRQRLLGDRPAPEMGSYVVLPLQRQAPLGILAFASEDGGHFQPSMDTLFLRHLALVLAHLIETLPWQSHDEERRTHPAS | not soluble |
| MSQVTRVYAGRLAGMIVRGPDTDAIGRVRDVIVNVRPNGQPSRVLGLVVEMMNNRKIFLPMLRVAAIEPQEITLVSGSVSLRAYKPRNGEVAIIADIVGSKVHIDDPELDHLHGRPVEVADIELERTRTRDWAISRVAVIGERPKFGRRPELFTCPWSHVHGISAGGVGITDAAAELIAEFEDMRPADIATVLYELPDAQRANVAKELDDDRLADVLQEMSEDRQAELIETLDIERAADVLEEMDPDDAADLLGELDDDKADVLLELMDPEESAPVRRLMSFSPDTVGALMTPEPLILSPQTTVAEALALARNPDLPTSLASIVFVVRPPTATPTGKYLGCVHLQKLLREPPSELVSGILDPDLPPLWASDSQETAARYFATYNLVCGPVVDNDNHLLGAVAVDDLLDHMLPDDWRDTGIRPDETPKEV | not soluble |
| MSQWHHPRSGWGRRRDFSGRSSAKKKGGNHIPERWKDYLPVGQRMPGTRFIAFKVPLQKSFEKKLAPEECFSPLDLFNKIREQNEELGLIIDLTYTQRYYKPEDLPETVPYLKIFTVGHQVPDDETIFKFKHAVNGFLKENKDNDKLIGVHCTHGLNRTGYLICIYLIDVEGVRPDDAIELFNRCRGHCLERQNYIEDLQNGPIRKNWNSSVPRSSDFEDSAHLMQPVHNKPVKQGPRYNLHQIQGHSAPRHFHTQTQSLQQSVRKFSENPHVYQRHHLPPPGPPGEDYSHRRYSWNVKPNASRAAQDRRRWYPYNYSRLSYPACWEWTQ | soluble |
| MSQYGFVRVPREVEKAIPVVNAPRPRAVVPPPNSETARLVREYAAKELTAPVLNHSLRVFQYSVAIIRDQFPAWDLDQEVLYVTCLLHDIATTDKNMRATKMSFEYYGGILSRELVFNATGGNQDYADAVTEAIIRHQDLTGTGYITTLGLILQIATTLDNVGSNTDLIHIDTVSAINEQFPRLHWLSCFATVVDTENSRKPWGHTSSLGDDFSKKVICNTFGYN | not soluble |
| MSREQAILVGCQLAGVDDERFRYSMEELASLVATANGEVVAEVTQKREAPHPATYIGKGKTEELAAIVKQLEPDVVIFNSELSPSQARNLTKMLGEVKVIDRTQLILDIFARRARSKEGKLQVELAQLEYMLPRLSGQGEALSRLGGGIGTRGPGETKLETDRRHIRRRIDDIKAELVRIAEHRGRYRERRQKNQAFQVALVGYTNAGKSTIFNRLTAADSLEENLLFATLDPLTRKCVLPCGYTVLVTDTVGFIQDLPTTLVAAFRSTLEEVTEADLLLHVVDSSHPDYVAHERTVSRLLAELGASSIPMVTVYNKSDQKASEFIPTTTASIMISALSAADIDRLRYFLEEAVKQQMARYDVSIPSGEGKLLARLKSDTILHEWHYNEQGGTYDCQGYVLPTHPLYGELQSFQR | soluble |
| MSRFTDKVAIITGSSNGIGQATARLLASEGAKVTVTGRNAERLEETKNILLGAGVPEGNVLVVVGDITQESVQENLIKSTLDKFGKIDILVNNAGAGIPDAQGKSGVNQSIDTYHKTFELNVQSVIEMTQKARPHLAKTQGEIVNISSIGAGPAAQVASPYYSIAKAALDQYTRTAAIDLVPEGIRVNSVSPGAVSTGFSAVSRGLTEEKSKAFYDYLGAQRECIPRGFCAVPEDIAKVIAFLADRNASNYIIGQTIVADGGTSLILGAHAHGAKMMQAVFKEL | not soluble |
| MSRPPPPRAASGAPLRPATVLGTMEMGRRMDASASAASVRAFLERGHSELDTAFMYCDGQSENILGGLGLGLGSGDCTVKIATKANPWEGKSLKPDSIRSQLETSLKRLQCPRVDLFYLHAPDHSTPVEETLCACHQLHQEGKFVELGLSNYASWEVAEICTLCKSNGWILPTVYQGMYNATTRQVEAELLPCLRHFGLRFYAYNPLAGGLLTGKYKYEDKDGKQPVGRFFGNNWAETYRNRFWKEHHFEAIALVEKALQTTYGTNAPRMTSAALRWMYHHSQLQGTRGDAVILGMSSLEQLEQNLAATEEGPLEPAVVEAFDQAWNMVAHECPNYFR | soluble |
